Reference: PMC2756145
Residue numbers refer to the chain shown, from its start. Read-outs that look alike come from different tables or passages of the source.

Experiments:
Pot1pC [1] = target: T1, Pot1pC (Schizosaccharomyces pombe, UniProt O13988 178-389); assay: EMSA
T1 sequence: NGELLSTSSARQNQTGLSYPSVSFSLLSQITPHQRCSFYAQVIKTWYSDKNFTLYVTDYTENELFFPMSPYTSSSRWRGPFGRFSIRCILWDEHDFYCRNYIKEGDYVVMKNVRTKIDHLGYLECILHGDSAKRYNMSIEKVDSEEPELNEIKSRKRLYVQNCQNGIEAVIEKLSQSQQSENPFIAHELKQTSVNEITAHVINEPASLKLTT

Pot1-DBD = target: T2, Pot1-DBD (Schizosaccharomyces pombe, UniProt O13988 1-389); assay: filter binding
T2 sequence: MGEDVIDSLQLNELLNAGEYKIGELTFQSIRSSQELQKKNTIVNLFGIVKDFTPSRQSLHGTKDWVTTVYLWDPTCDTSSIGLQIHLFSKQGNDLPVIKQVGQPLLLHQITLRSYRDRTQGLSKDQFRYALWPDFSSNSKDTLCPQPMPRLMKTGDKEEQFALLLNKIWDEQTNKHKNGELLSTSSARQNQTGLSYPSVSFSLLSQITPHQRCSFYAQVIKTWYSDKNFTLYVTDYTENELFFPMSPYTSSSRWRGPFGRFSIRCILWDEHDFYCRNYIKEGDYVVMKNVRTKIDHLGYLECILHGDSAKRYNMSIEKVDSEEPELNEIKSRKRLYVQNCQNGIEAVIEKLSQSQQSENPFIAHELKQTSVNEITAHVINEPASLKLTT

Pot1-DBD_V97A = target: T3, Pot1-DBD_V97A (Schizosaccharomyces pombe, UniProt O13988 1-389, V97A); assay: filter binding
T3 sequence: T2 sequence with V97A

Pot1-DBD_Q91A = target: T4, Pot1-DBD_Q91A (Schizosaccharomyces pombe, UniProt O13988 1-389, Q91A); assay: filter binding
T4 sequence: T2 sequence with Q91A

Pot1pC [2] = target: T1, Pot1pC; assay: EMSA; remark: listed apart in the source
Pot1pN_D64A = target: T5, Pot1pN_D64A (Schizosaccharomyces pombe, UniProt O13988 1-185, D64A); assay: filter binding
T5 sequence: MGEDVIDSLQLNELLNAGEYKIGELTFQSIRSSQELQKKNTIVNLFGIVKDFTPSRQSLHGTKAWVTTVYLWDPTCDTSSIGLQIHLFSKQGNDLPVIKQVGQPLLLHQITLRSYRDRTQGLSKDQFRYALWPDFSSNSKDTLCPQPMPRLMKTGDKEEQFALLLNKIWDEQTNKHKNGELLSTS

Pot1pN = target: T6, Pot1pN (Schizosaccharomyces pombe, UniProt O13988 1-185); assay: filter binding
T6 sequence: T5 sequence with A64D

Pot1pN_S123A = target: T7, Pot1pN_S123A (Schizosaccharomyces pombe, UniProt O13988 1-185, S123A); assay: filter binding
T7 sequence: T5 sequence with A64D, S123A

Pot1pN_Y115A = target: T8, Pot1pN_Y115A (Schizosaccharomyces pombe, UniProt O13988 1-185, Y115A); assay: filter binding
T8 sequence: T5 sequence with A64D, Y115A

Pot1pN_T62A = target: T9, Pot1pN_T62A (Schizosaccharomyces pombe, UniProt O13988 1-185, T62A); assay: filter binding
T9 sequence: T5 sequence with T62A, A64D

GGTTAGGGT (ssDNA) [9mer_C6G]
Kd (Pot1pC [1]): 300 ± 50 nM

GGTTACGGTTACGGT (ssDNA) [15mer]
binding result (Pot1-DBD): binds | Kd (Pot1-DBD_V97A): 0.04 ± 0.004 nM | Kd (Pot1-DBD_Q91A): 0.04 ± 0.003 nM

GCTTACGGT (ssDNA) [9mer_G2C]
Kd (Pot1pC [1]): 3000 ± 600 nM

GGTTAGGGTTAC (ssDNA) [12mer_C6G]
Kd (Pot1-DBD_V97A): 100 ± 10 nM

GGTAACGGT (ssDNA) [9mer_T4A]
Kd (Pot1pC [1]): 700 ± 300 nM

GGATACGGT (ssDNA) [9mer_T3A]
Kd (Pot1pC [1]): 600 ± 100 nM

GGTTTCGGTTAC (ssDNA) [12mer_A5T]
Kd (Pot1-DBD_V97A): 50 ± 4 nM

CGTTACGGT (ssDNA) [9mer_G1C]
Kd (Pot1pC [1]): 1000 ± 100 nM

GGTTACCGT (ssDNA) [9mer_G7C]
Kd (Pot1pC [1]): 3000 ± 500 nM

CGGTTAC (ssDNA) [7mer-5']
Kd (Pot1pC [2]): 35000 ± 8000 nM

GGTTACGCT (ssDNA) [9mer_G8C]
Kd (Pot1pC [1]): 800 ± 200 nM

GGTTACGG (ssDNA) [8mer-3']
Kd (Pot1pC [1]): 1900 ± 300 nM

ACGGTTAC (ssDNA) [8mer-5']
Kd (Pot1pC [2]): 15000 ± 2000 nM

GGTTACGGA (ssDNA) [9mer_T9A]
Kd (Pot1pC [1]): 2000 ± 400 nM

GGTTACG (ssDNA) [7mer-3']
Kd (Pot1pC [2]): 10500 ± 1900 nM

CGTTACGGTTAC (ssDNA) [12mer_G1C]
Kd (Pot1-DBD_V97A): 70 ± 7 nM | Kd (Pot1-DBD_Q91A): 50 ± 6 nM

GGTTACGGT (ssDNA) [9mer-3']
Kd (Pot1pC [1]): 400 ± 70 nM

GGTTACGGTTA (ssDNA) [11mer-3']
Kd (Pot1pC [1]): 600 ± 100 nM

GGTTACGGTTACGGTTACGGTTAC (ssDNA) [24mer]
Kd (Pot1-DBD_V97A): 0.06 ± 0.004 nM | Kd (Pot1-DBD_Q91A): 0.06 ± 0.003 nM

GGTTACGGTT (ssDNA) [10mer-3']
Kd (Pot1pC [1]): 300 ± 40 nM

CCAATGCCCAATGC (ssDNA) [C-rich complementary sequence]
binding result (Pot1pC [1]): no binding

GGTTAC (ssDNA) [6mer]
Kd (Pot1pN_D64A): 400 ± 30 nM | Kd (Pot1pN): 30 ± 20 nM | Kd (Pot1pN_S123A): 100 ± 10 nM | Kd (Pot1pN_Y115A): 300 ± 20 nM | Kd (Pot1pN_T62A): 500 ± 50 nM
